In PMC10907721:
Numbering of substitutions follows the chain as printed.

Legend:
Assay in all cases: EMSA
Conditions in all cases: EMSA: 20 mM Tris-HCl pH 7.5, 25 mM NaCl, 2 mM beta-mercaptoethanol, 10% glycerol; 50 nM nucleosome or DNA; 15 min room temperature; 6% TBE-acrylamide gel, 0.2X …
[1] = biological target: T1, Hop1 CBR loop 1 mutant N362A;H365A (Saccharomyces cerevisiae) (UniProt P20050)
T1 sequence: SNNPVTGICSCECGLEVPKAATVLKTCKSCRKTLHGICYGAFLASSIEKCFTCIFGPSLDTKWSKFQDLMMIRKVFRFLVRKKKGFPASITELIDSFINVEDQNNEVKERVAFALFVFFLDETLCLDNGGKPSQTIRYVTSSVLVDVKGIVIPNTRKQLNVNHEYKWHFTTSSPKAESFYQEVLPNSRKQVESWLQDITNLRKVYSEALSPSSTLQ

[2] = biological target: T2, Hop1 CBR loop2 mutant R402A;K403A;K404A;K405A (Saccharomyces cerevisiae) (UniProt P20050)
T2 sequence: T1 sequence with A41N, A44H, R81A, K82A, K83A, K84A

[3] = biological target: T3, Hop1 CBR loop 1+2+3 mutant N362A;H365A;R402A;K403A;K404A;K405A;K452A;R458A (Saccharomyces cerevisiae) (UniProt P20050)
T3 sequence: T1 sequence with R81A, K82A, K83A, K84A, K131A, R137A

[4] = biological target: T4, Hop1 CBR loop 1+3 mutant N362A;H365A;K452A;R458A (Saccharomyces cerevisiae) (UniProt P20050)
T4 sequence: T1 sequence with K131A, R137A

[5] = biological target: T5, Hop1 CBR loop 3 mutant K452A;R458A (Saccharomyces cerevisiae) (UniProt P20050)
T5 sequence: T1 sequence with A41N, A44H, K131A, R137A

[6] = biological target: T6, Hop1 CBR loop2+3 mutant R402A;K403A;K404A;K405A;K452A;R458A (Saccharomyces cerevisiae) (UniProt P20050)
T6 sequence: T1 sequence with A41N, A44H, R81A, K82A, K83A, K84A, K131A, R137A

[7] = biological target: T7, Hop1 CBR loop 1+2 mutant N362A;H365A;R402A;K403A;K404A;K405A (Saccharomyces cerevisiae) (UniProt P20050)
T7 sequence: T1 sequence with R81A, K82A, K83A, K84A

TGGAGAATCCCGGTGCCGAGGCCGCTCAATTGGTCGTAGACAGCTCTAGCACCGCTTAAACGCACGTACGCGCTGTCCCCCGCGTTTTAACCGCCAAGGGGATTACTCCCTAGTCTCCAGGCACGTGTCAGATATATACATCCTGT (double strand) [Widom 601 mononucleosome (human histones)]
Kd [1]: 2 µM
Kd [2]: > 50 µM
Kd [3]: > 50 µM
Kd [4]: 13 µM
Kd [5]: 50 µM
Kd [6]: > 50 µM
Kd [7]: > 50 µM
